We go through three molecules from paper PMC10404369, “Epithelial cell adhesion molecule (EpCAM) regulates HGFR signaling to promote colon cancer progression and metastasis” (Journal of Translational Medicine, 2023).

The target of experiment [1] is T1, HGFRECD-His recombinant protein (human, UniProt P08581 25-932).
T1 construct: human HGFR (c-MET) recombinant protein, extracellular domain; also called HGFR-His; HGFR-His recombinant protein; source: bought: Sino Biological
Nature of the experiment: ELISA; HGFR-His recombinant protein (2 μg/ml) added to plates coated with EGF-like-domain deletion mutant-Fc (1 μg/ml); TMB colorimetric peroxidase assay. Conditions: both partners purified. For orientation: An ELISA detects its analyte on a solid surface through an enzyme-linked reagent.

Experiment [2] has as its target T1, HGFRECD-His recombinant protein. Nature of the experiment: pull-down; EpEX-Fc and HGFR-His recombinant protein (2.5 μg/ml); IP with Dynabeads Protein G, Western blotting with anti-6× His tag antibody. Conditions: both partners purified.

T1 sequence (P08581 25-932): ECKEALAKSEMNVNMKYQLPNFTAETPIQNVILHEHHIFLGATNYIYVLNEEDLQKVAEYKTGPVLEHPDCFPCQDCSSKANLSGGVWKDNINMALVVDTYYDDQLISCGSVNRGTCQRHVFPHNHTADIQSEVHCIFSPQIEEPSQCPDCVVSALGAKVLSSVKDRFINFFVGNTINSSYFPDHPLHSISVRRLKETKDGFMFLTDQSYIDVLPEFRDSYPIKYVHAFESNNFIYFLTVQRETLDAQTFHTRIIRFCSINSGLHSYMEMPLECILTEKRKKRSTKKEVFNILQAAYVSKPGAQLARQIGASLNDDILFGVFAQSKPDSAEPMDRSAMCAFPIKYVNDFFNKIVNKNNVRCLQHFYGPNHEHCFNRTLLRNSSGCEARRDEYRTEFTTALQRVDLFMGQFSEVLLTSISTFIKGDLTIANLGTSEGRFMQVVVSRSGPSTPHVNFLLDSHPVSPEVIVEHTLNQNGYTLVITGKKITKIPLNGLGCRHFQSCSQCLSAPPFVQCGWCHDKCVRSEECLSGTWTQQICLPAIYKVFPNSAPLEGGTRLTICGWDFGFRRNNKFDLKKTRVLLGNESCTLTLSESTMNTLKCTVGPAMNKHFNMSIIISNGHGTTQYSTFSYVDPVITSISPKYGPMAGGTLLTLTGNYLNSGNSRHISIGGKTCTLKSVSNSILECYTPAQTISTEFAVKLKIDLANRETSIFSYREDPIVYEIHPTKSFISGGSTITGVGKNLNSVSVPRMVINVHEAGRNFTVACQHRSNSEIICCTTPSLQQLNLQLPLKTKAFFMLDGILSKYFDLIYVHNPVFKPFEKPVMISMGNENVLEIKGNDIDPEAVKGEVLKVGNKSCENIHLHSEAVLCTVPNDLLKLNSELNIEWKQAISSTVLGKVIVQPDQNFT

B1: EpEX_(ΔEGFI)-Fc (Fc fusion, human, UniProt P16422 24-265, looked up)
chain: QEESKLAAKCLVMKAEMNGSKLGRRAKPEGALQNNDGLYDPDCDESGLFKAKQCNGTSMCWCVNTAGVRRTDKDTEITCSERVRTYWIIIELKHKAREKPYDSKSLRTALQKEITTRYQLDPKFITSILYENNVITIDLVQNSSQKTQNDVDIADVAYYFEKDVKGESLFHSKKMDLTVNGEQLDLDPGQTLIYYVDEKAPEFSMQGLK
notes: EpEX, extracellular domain of EpCAM, with EGF-like domain I (amino acids 27–59) deleted; also called EGF-like-domain deletion mutant-Fc
As for B1, the binding result in experiment [1] is listed as “binds”.

B2: EpEX-Fc recombinant protein (Fc fusion, human, UniProt P16422 24-265, looked up)
chain: QEECVCENYKLAVNCFVNNNRQCQCTSVGAQNTVICSKLAAKCLVMKAEMNGSKLGRRAKPEGALQNNDGLYDPDCDESGLFKAKQCNGTSMCWCVNTAGVRRTDKDTEITCSERVRTYWIIIELKHKAREKPYDSKSLRTALQKEITTRYQLDPKFITSILYENNVITIDLVQNSSQKTQNDVDIADVAYYFEKDVKGESLFHSKKMDLTVNGEQLDLDPGQTLIYYVDEKAPEFSMQGLK
notes: also called recombinant EpEX-Fc
For the molecule B2, the binding result in experiment [2] is reported as “binds”.

B3: EpEX_(ΔEGFII)-Fc (Fc fusion, human, UniProt P16422 24-265, looked up)
chain: QEECVCENYKLAVNCFVNNNRQCQCTSVGAQNTVICSKLAAKSERVRTYWIIIELKHKAREKPYDSKSLRTALQKEITTRYQLDPKFITSILYENNVITIDLVQNSSQKTQNDVDIADVAYYFEKDVKGESLFHSKKMDLTVNGEQLDLDPGQTLIYYVDEKAPEFSMQGLK
notes: EpEX, extracellular domain of EpCAM, with EGF-like domain II (amino acids 66–135) deleted; also called EGF-like-domain deletion mutant-Fc
Consider B3, for which the binding result in experiment [1] is listed as “binds”.
